Source: the DeepSol protein solubility set

Test: soluble on expression in E. coli; label from the status in PepcDB or PDB records

With “MNYFVGNSLGVNLTGIEKAIINRLNLFKEMGRPAQCVFLSWNRYLYRNAQNYITSSDYINMYDFFQEATYLERNEPFDWLSYWTDECHYTLKHVENSHDFRIYDQERFLMYAHFQDPKYRILDYVNHFDSQRRKVKRDFYDVRGFLSCSRILVDKQQTLCEFFYNPEGDTKLEKYFSYKDGKPEVQKIIVYYANKQYFFNNETELGAFFIKQLYQHGDLFFSDRNVYTAPIFNLTPESIPVVAVLHSTHIKNIDALDSSPFKNVYKAMFENLSRYRAIIVSTEQQKLDVEKRINHTIPVVNIPVGYSETIDTPVQTLDQRSVKLISVARYSPEKQLHQQIELIKRLVSYVPKIELHMYGFGSESKKLNELIQKYGLENHVYLRGFLSNLDQEYSDAYLSLITSNMEGFSLALLESLAHGVPVISYDIKYGPNELITSDFNGYLITKNDEDALFDKVKYVIDHPEVQQRLSKGSLAKAQQYSKASLIKQWDQFVRLI” as the sequence, how does the “soluble on expression in E. coli” value read?
The value was “not soluble”.

With “DSRGCARWCPQDSSCVNATACRCNPGFSSFSEIITTPMETCDDINECATLSKVSCGKFSDCWNTEGSYDCVCSPGYEPVSGAKTFKNESENTCQDVDECSSGQHQCDSSTVCFNTVGSYSCRCRPGWKPRHGIPNNQKDTVCE” as the sequence, how does the “soluble on expression in E. coli” value read?
Its value is “soluble”.

With “MKCIESLGKTVDEAVKKALSELKVTEDKVEIKVIDEGSKGLLNIIGKREAKVKVTLKTDYIDEVRTFLRKVFEDMNLVIEIKIKEIGNDLFVNLFGKNIGLLIGYRGETLDSLQYLVNLVANKNHADGKYKRVILDTENYRAKREETLKRLALKISKRVKEEKSPFKLEPMNPYERRVIHSALQNDKYVRTYSEGEEPHRRVVVELKKS” as the sequence, how does the “soluble on expression in E. coli” value read?
The value was “not soluble”.

For “MSLQIQNLTKQFGESKAVNSLQISLPKGEVLGLLGRNGAGKTTTIKMLLGLLTPNEGSITWDGKTFGTSGVTIGYLPEERGLYTKSRVIDQLRYFGRLEGMAKKEVDLAIDHWLDRLAIPEYKFKTAGELSKGNQQKIQLIAALLHNPELLILDEPFSGLDPVNAGMLASIIEEQVQSGKTIILSSHRMEQVEAFCQHVCILKKGEAVVKGQLSDIKKEYGFRNLTIEDTEENEKGLQAIHVSYEKQQGLLYVKVQDDAEALNILQQLQEQGVTLRQFKMLEPTLNEIFVERAK”, which “soluble on expression in E. coli” value is on record?
Its value is “not soluble”.

With “MSSPSGSSRTFPQYQSGSGWNAMLPKRTPRTAAPARRHFKSLVIGAGYTGLAAARRLAELQPQDQVLVVDATVAGEGSAGRNSGFLINLPHNTRMSGHHSPLEVARKQIAMLQSGLDWLAQLSGQGGFDCGWDLAGKYHAAATADGEQSLRGALQQYGQWGVAYSELDRDALQAQLGTRYYRFGYHSMNNVFVQPAALIRGLADSLPENVWLTEDNPVLSIDGSGPYKVRTRGGEFTADNVILANNAFARRLGFLRSRLVTIFTYAGVTPVLSPAQQALLGERDQWGVIPANRLGTTLRRISGGRFMVRSAYSYEAEQPLERMEQLLRDSFVRRYPDLAAHDFEYVWSGSTGLTGNGASFVGAIQPGLYASVGCNGAGVIKGTIYGKLLGEQVAGHRSAMLDDLASFEKPNWLPPEPLRRIGALSTIAYQARKAGLEKLEHHHHHH” as the sequence, how does the “soluble on expression in E. coli” value read?
Its value is “soluble”.

Which “soluble on expression in E. coli” value does the source give for “MIEFDNLTYLHGKPQGTGLLKANPEDFVVVEDLGFEPDGEGEHILVRILKNGCNTRFVADALAKFLKIHSREVSFAGQKDKHAVTEQWLCARVPGKEMPDLSAFQLEGCQVLEYARHKRKLRLGALKGNAFTLVLREVSNRDDVEQRLIDICVKGVPNYFGAQRFGIGGSNLQGALRWAQTNTPVRDRNKRSFWLSAARSALFNQIVAERLKKADVNQVVDGDALQLAGRGSWFVATTEELAELQRRVNDKELMITAALPGSGEWGTQREALAFEQAAVAAETELQALLVREKVEAARRAMLLYPQQLSWNWWDDVTVEIRFWLPAGSFATSVVRELINTTGDYAHIAELEHHHHHH” here?
The value was “soluble”.

For “ETRVRRTKTIVEITGLDARSGSLRINELYRWEPVHDNFKRAGDSYVLNEIMRARGWSPDKLFIEFKNREQILAYMTAKQIRDYVSVSLIVHMYATNPQLVMEAVGNDTLRDMVAHHS”, which “soluble on expression in E. coli” value is on record?
The value was “not soluble”.

For “MSLRDIAIGASLELSGPTQSIGTAYKKALELQVDSINEQGGVLGGRKLRLVVKDNQTKPAQNITNVNDLINNDHVVAVITGGCSACTVPVTSIVEKRKVPLISLASATAITDPVAERQYTFKISPNPAQDAEVLLADLKKKGVKSVGLLNVDNPYGQEGRAAVLAQAKKAGIEVTGTQQFGQEDKDMSVQAKRLVDDRPEAVVVWAVMPAAGIIAKNLRDAEFDGGVYLDAGAGAELFVKGAQGAAEGVHMVFPRVLAIGDVTSGGDSVRKQKQWVARYTDRYQDYSGFASFAADAALMLRDAIAKSGSTDGAELRDTIETIGFDGVSGPIRNSAKEHSGLQPESLGVLVVRDGDWHLANEGHHHHHH”, which “soluble on expression in E. coli” value is on record?
The value was “soluble”.

With “MTQFNGKKIQEKIVSYCIDEVELDLITASDIAFHMTDWLNNLEDLVAFYKTPDEYSPEQLNNILMGFLYHVPNHTIAAAKLLLDVQVTDVFGVGVIADNKDE” as the sequence, how does the “soluble on expression in E. coli” value read?
Its value is “not soluble”.

Which “soluble on expression in E. coli” value does the source give for “MENKRTLVVALGGNALLKRGEPLEADIQRKNIELAARTIAQLTRQWRVVLVHGNGPQVGLLALQNSAYANVTPYPLDILGAESQGMIGYMLQQALKNHLPEREISVLLTQVEVDANDPAFLNPTKYIGPIYDEAQARALQAEKGWVFKADGNAFRRVVPSPQPKRIVENDAIRALISRDHLVICNGGGGVPVVEKADGYHGIEAVIDKDLSAALLASQIHADALLILTDADAVYLDWGKPTQRPLAQVTPELLREMQFDAGSMGPKVTACAEFVSHCRGIAGIGSLADGQAILAGEKGTLIRCETADVDA” here?
The value was “not soluble”.

With “MEDKKDALISKTISMLLDNGFAVADISGQFSASFDIIARRNIERYVLKVLYNIDTLKPTTAYQLAKVAKFLRSTATIVGEKAGGGPLEDGVIYYRHGIPISSLDTFRDYINGEKPYIYSGPGGFYVKINGEALREMRMKMSLSIGYLSHYLGVSRRSVSLYENGSSATIDVFLKLQEIIKSDLVDHTDLFKIIPDNFQEEERVDDVYIQMLLDILERIGLDTKPAYRMPFDILARDEEVVSLIASLLSEEADKTKIEIMKKISSVLEDDAFLISKHSTTRENINGCPVINIVDLEKMTSKDELLRMLEKRAR” as the sequence, how does the “soluble on expression in E. coli” value read?
Its value is “not soluble”.

Which “soluble on expression in E. coli” value does the source give for “MSLAVDTSGEFMRHLYIEEGRTVCASATSRNRRPTSESPHSDDVVVVEGMLRGRPETRVHAMFDGFQGRHSAMWLAQNVMNYLNDLRDVNEEEITRQFERMDGDLRAANLPGGSSALIIFVRYEKKPTEARVVGRQIVPEGAKEFTSVAEALGGPLMPVVAMNFRRDPRAAKGIYTIHVASLGNSRCVLKSGRTAIHLSTPHTASSHKERHRVQAAGGVFTTVNGELLLGGVVPMTRAFGSFDFKKGGQGKLQQDLVSAVPDVTTFFAYPGDDIVAGTAGAFAHFRSHAAIAAAIALYPVSPETVLDAAKAMVVNAKRRKVTKNISTFVRHLPESRTRSQKMLEGTSGENGEEDFSIDRTNELTQALQAGFFSFLLYYEGHHHHHH” here?
Its value is “soluble”.

For “MKMMDANEIISFIQNSTKSTPVKVYVKGELEGINFGESAKAFINGNTGVVFGEWSEIQTAIEENQSKIEDYVVENDRRNSAIPMLDL”, which “soluble on expression in E. coli” value is on record?
Its value is “not soluble”.

Which “soluble on expression in E. coli” value does the source give for “MASGRQSGRDTEEYGGLSNSGISSGSHVKDTAYYERRRKNNAAAKKSRDRRRIKEDEIAIRAAYLERQNIELLCRIDALEVQLAAITSAKVTTAAAAAAALEHHHHHH” here?
Its value is “not soluble”.

For “ASEEEKAWLMASRQQLAKETSNFGFSLLRKISMRHDGNMVFSPFGMSLAMTGLMLGATGPTETQIKRGLHLQALKPTKPGLLPSLFKGLRETLSRNLELGLTQGSFAFIHKDFDVKETFFNLSKRYFDTECVPMNFRNASQAKRLMNHYINKETRGKIPKLFDEINPETKLILVDYILFKGKWLTPFDPVFTEVDTFHLDKYKTIKVPMMYGAGKFASTFDKNFRCHVLKLPYQGNATMLVVLMEKMGDHLALEDYLTTDLVETWLRNMKTRNMEVFFPKFKLDQKYEMHELLRQMGIRRIFSPFADLSELSATGRNLQVSRVLQRTVIEVDERGTEAVAGILSEITAYSMPPVIKVDRPFHFMIYEETSGMLLFLGRVVNPTLL”, which “soluble on expression in E. coli” value is on record?
Its value is “soluble”.

With “MSRPRKRLAGTSGSDKGLSGKRTKTENSGEALAKVEDSNPQKTSATKNCLKNLSSHWLMKSEPESRLEKGVDVKFSIEDLKAQPKQTTCWDGVRNYQARNFLRAMKLGEEAFFYHSNCKEPGIAGLMKIVKEAYPDHTQFEKNNPHYDPSSKEDNPKWSMVDVQFVRMMKRFIPLAELKSYHQAHKATGGPLKNMVLFTRQRLSIQPLTQEEFDFVLSLEEKEPS” as the sequence, how does the “soluble on expression in E. coli” value read?
The value was “soluble”.

With “MSLTAPLEWKQANFLSISDSHGWLLGHQHSTWPEPNYSGNYGSFASFVIHMRKIADEKGVDLLLIDAGDHHDGSGLVSSSPDSASLAEDIFSMISYDVITIGNHELYHYADALDIYENHERWGGRYVTSNVNITVKREGEWQSVPIGQTHLKFTTKQGYNVTAFGVIFDFKAHDKGITVQKPSKLVHEPWFQEAIRDAPDYFILAGHMPVRGETAEFAPVFDAIRDIHPQVPIFLFGGHTHVRDCVQYDERSIGVVPGKYLETVAFTSSSLPSSSGDDRPLDVARSYQWHTNQTSYTFDTEGHHHHHH” as the sequence, how does the “soluble on expression in E. coli” value read?
The value was “soluble”.

With “MEEDLLGICGFDSSKKYRLEELAKYQSGSCIEFEDDDEMAVDYPCPFCSDDYDLVELCHHIDEEHQLDANNGICPVCSRRVKMHMVDHITTQHRDVFKRLYKDESYSAFSPGTRKYLQSLIDEPLSTNHTSKSVLDPLLSFIYNPPSPKKSKLVQPDSSSEASMEDNSLIRDSTEKDWESPSPLSDTELLEKAKKREFVQGLISSAIFDHIYNF” as the sequence, how does the “soluble on expression in E. coli” value read?
Its value is “soluble”.

With “MSLNRNNPLEVLGHVSWLWASSPLHRNWPVSLFAINVLPAIRANQYALLTRDNYPVAYCSWANLSLENEIKYLNDVTSLVAEDWTSGDRKWFIVWIAPFGDNGALYKYMRKKFPDELFRAIRVDPKTHVGKVSEFHGGKIDKQLANKIFKQYHHELITEVKNKSDFNFSLTGEGHHHHHH” as the sequence, how does the “soluble on expression in E. coli” value read?
Its value is “soluble”.

For “MSPLWLVVFIVPLASGISLSDCSKKNSCYGSPVNCQPGIDCHVLLRFEDDGTLDVHLQNFTAPDGYVALAYNSNQNAPTEYLICIPHERKRLRGISSQGEIITITEQNMAQYVAQMDTNTFICSFVGKEIPSNFRMQSNFVVSEGLFANESNIPTTYKLEPISTDSVFFHPIAATIGRQDEALSEDEEKLATDLLGKVQRLSDHDSESTDMEAILNEKNRFTIEEFEEKLFSAMSNRRRPIKKFEREEEDQDDDEYSEVEEKESHPKKRREHKKGRHTRVLSDEQEEDYDQYEDDMPSKKRKRPFNSEELENGEDVDFGKKSNKNSQKGTFDGQRQR”, which “soluble on expression in E. coli” value is on record?
The value was “not soluble”.

Which “soluble on expression in E. coli” value does the source give for “MDGDQVKGILKSGNNSAQFSLKAAKFDEVNILATFHPAGKDYGHMIIDEPKTPFVFEEDLPKELDTNALIEKLRHTSKSEMPAFGIEGDSEESSADEDFPESVEEKVRRMEFERRRKVHYKEFYSVPLARRLIADEFAELTSSEFNIHCEGGMESCEACSENNQLDGEASNLTQTKYSYSESQSEYRISDHSEPEPGFSPSHHCYQKLKAELFSKAEPEELASLTHLHRMPSVNDDEPSREPRVPYPSVVPTQTQNLHEHKSSLKITSEKPTPARICKSNPDNRPGTSKKETRLEHHHHHH” here?
The value was “not soluble”.

For “MGHHHHHHSHMLREPGDPEKLGEFLQKDNISVHYFCLILSSKLPQRGQSNRGSMDFCLKTSKRRQPGLLGRSALCARKRELLSTARRISASETSICLVAKKGVAFHNFLESTNHFVTNIAQHRTSNMGMWGRKAASYVVKTYPNRVLRTSRARVVVKPSTTASAYRNMPTHQQSISSNVHSVTIERVSSRNAENGNPYSRQEVVPHSVCYVRIPRNPQGLLLS”, which “soluble on expression in E. coli” value is on record?
The value was “not soluble”.
